In paper PMC9555707:
“And” between values parts separate entries of the source, which are not always exact repeats. Identical values can stand only once.

Biological target: SmT1v3-R, tagless resistin-trimerized SARS-CoV-2 spike ectodomain, reference strain (SARS-CoV-2 | human) (UniProt P0DTC2)
Experiment: SEC-MALS; UPLC-SEC on a 4.6 x 300 mm Acquity BEH450 column in PBS + 0.02% Tween-20, coupled to a miniDAWN MALS detector and Optilab T-rEX refractometer; trimer and hexamer populations by molecular weight

Substance: SmT1v3-R, tagless resistin-trimerized SARS-CoV-2 spike ectodomain, reference strain (from UniProt P0DTC2 14-1208; Q9HD89-1 23-108)
- percent of the protein as hexamer: 3%
- percent of the protein as trimer: 96%
- stoichiometry N: 3 and 6
